{"source": "paper PMC8567202", "about": "“Phosphoinositide-binding activity of Smad2 is essential for its function in TGF-β signaling” (The Journal of Biological Chemistry, 2021)", "molecules": {"B1": {"name": "Smad2 WT: bacterially expressed full-length Smad2 wild-type (protein)", "chain": "MSSILPFTPPVVKRLLGWKKSAGGSGGAGGGEQNGQEEKWCEKAVKSLVKKLKKTGRLDELEKAITTQNCNTKCVTIPSTCSEIWGLSTANTVDQWDTTGLYSFSEQTRSLDGRLQVSHRKGLPHVIYCRLWRWPDLHSHHELKAIENCEYAFNLKKDEVCVNPYHYQRVETPVLPPVLVPRHTEILTELPPLDDYTHSIPENTNFPAGIEPQSNYIPETPPPGYISEDGETSDQQLNQSMDTGSPAELSPTTLSPVNHSLDLQPVTYSEPAFWCSIAYYELNQRVGETFHASQPSLTVDGFTDPSNSERFCLGLLSNVNRNATVEMTRRHIGRGVRLYYIGGEVFAECLSDSAIFVQSPNCNQRYGWHPATVCKIPPGCNLKIFNNQEFAALLAQSVNQGFEAVYQLTRMCTIRMSFVKGWGAEYRRQTVTSTPCWIELHLNGPLQWLDKVLTQMGSPSVRCSSMS", "modifications": "left off: His6, N-terminal, state not stated", "notes": "bacterially expressed full-length Smad2 wild-type"}}, "key": {"[1]": {"test": "SPR membrane binding to POPC/POPS/PI(3,4,5)P3 vesicles", "settings": "POPC/POPS/PI(3,4,5)P3 (or PIP3) (77:20:3), 1 μM Smad2", "procedure": "(§1) Figure 1 Membrane-binding properties of Smad2 FL protein and MH2 domain determined by SPR analysis.A, PtdInsP selectivity of Smad2-FL determined using POPC/POPS/PtdInsP (77:20:3 in mole ratio) LUVs coated on the L1 sensor chip. The protein concentration was 100 nM. PIP3 indicates PI(3,4,5)P3. B, determination of Kd for binding of Smad2 FL to different LUVs. The protein concentration was varied from 0 to 500 nM. C, PI(4,5)P2 concentration dependence of membrane binding of Smad2-FL determined using POPC/POPS/PI(4,5)P2 (77-x:20:x, x = 0–5 mol%) LUVs. The protein concentration was 100 nM. D, PtdInsP selectivity of the Smad2 MH2 domain determined using POPC/POPS/PtdInsP (77:20:3 in mole ratio) LUVs. […] RUmax values determined for different vesicles at 1 μM Smad2 were: 280 ± 20 for POPC/POPS/PI(4,5)P2 (77:20:3), 370 ± 10 for POPC/POPS/PI(3,4)P2 (77:20:3), 400 ± 15 for POPC/POPS/PI(3,4,5)P3 (or PIP3) (77:20:3), 400 ± 20 for POPC/POPS/PI(3)P (77:20:3), and 380 ± 20 for POPC/POPS (80:20). […]\n(§2) All SPR measurements were performed at 23 °C in 20 mM Tris, pH 7.4, containing 0.16 M NaCl using a lipid-coated L1 chip in the BIACORE X-100 system (GE Healthcare) as described previously ([19], [38]). […] Sensorgrams were collected for both membrane association and dissociation but the only the association phases were further analyzed because the dissociation phases were often too slow for analysis. […]"}, "[2]": {"test": "SPR membrane binding to POPC/POPS/PI(3,4)P2 vesicles", "settings": "POPC/POPS/PI(3,4)P2 (77:20:3), 1 μM Smad2", "procedure": "as §1, §2"}}, "data": [{"molecule": "B1", "values": [{"measurement": "RUmax", "setting": "[1]", "result": "400 ± 15"}, {"measurement": "RUmax", "setting": "[2]", "result": "370 ± 10"}]}]}
